Laboratory results published in patent US12297272B2, “IgG Fc variants for veterinary use” (Elanco US Inc., priority 2017, dated 2025).

Experiments:
Protein A = Protein A (Staphylococcus aureus, UniProt P38507); details: for Protein A Binding: Wild-type Canine IgG Fc
Procedure: In some embodiments, the KD of an IgG Fc polypeptide, such as a variant IgG Fc polypeptide, to Protein A or to C1q or to CD16 is measured by using biolayer interferometry assays using a biosensor, such as an Octet® System (Pall ForteBio LLC, Fremont, CA) according to the supplier's instructions. In brief, biotinylated Protein A or C1q or CD16 is bound to the sensor tip and the association of IgG Fc polypeptide is monitored for a specified time or until steady state is reached. Dissociation may be monitored for a specified time or until steady state is reached. A buffer only blank curve is subtracted to correct for any drift. The data are fit to a 2:1 binding model using ForteBio data analysis software to determine association rate constant (kon), dissociation rate constant (koff), and the Kd. The equilibrium dissociation constant (KD) is calculated as the ratio of koff/kon. The term “kon” refers to the rate constant for association of a molecule X to its partner Y and the term “koff” refers to the rate constant for dissociation of a molecule X or partner Y from the molecule X/partner Y complex.
Binding analysis may be performed using an Octet biosensor. Briefly, the target molecule (e.g., Protein A, C1q, CD16, etc.) may be biotinylated and free unreacted biotin removed (e.g., by dialysis). The biotinylated target molecule is captured on streptavidin sensor tips. Association of the target molecule with various concentrations (e.g., 10 μg/mL) of IgG Fc polypeptide is monitored for a specified time or until steady state is reached. Dissociation is monitored for a specified time or until steady state is reached. A buffer only blank curve may be subtracted to correct for any drift. The data are fit to a 1:1 binding model using ForteBio™ data analysis software to determine the kon, koff, and the Kd.

C1q [1] = molecular target: T1, C1q (Homo sapiens, UniProt P02745+P02746+P02747); assay: C1q binding of IgG Fc polypeptides (Octet biolayer interferometry described); details: for C1q Binding: Wild-type Canine IgG Fc; for C1q binding: key: (−) denotes low or no measurable binding activity
T1 sequence (P02745 23-245): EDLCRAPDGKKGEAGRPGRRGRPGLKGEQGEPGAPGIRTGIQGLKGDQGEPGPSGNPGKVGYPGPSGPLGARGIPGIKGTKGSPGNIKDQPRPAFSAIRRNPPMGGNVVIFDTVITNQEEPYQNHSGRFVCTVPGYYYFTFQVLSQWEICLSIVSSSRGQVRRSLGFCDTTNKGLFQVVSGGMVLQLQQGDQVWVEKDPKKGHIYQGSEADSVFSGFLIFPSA
T1 sequence (P02746 28-253): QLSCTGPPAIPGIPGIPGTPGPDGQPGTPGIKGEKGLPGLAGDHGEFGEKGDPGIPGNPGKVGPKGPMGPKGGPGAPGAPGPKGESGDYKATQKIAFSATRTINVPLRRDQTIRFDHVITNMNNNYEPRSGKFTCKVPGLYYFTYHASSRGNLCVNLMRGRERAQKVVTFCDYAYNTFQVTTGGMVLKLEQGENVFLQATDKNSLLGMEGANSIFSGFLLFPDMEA
T1 sequence (P02747 29-245): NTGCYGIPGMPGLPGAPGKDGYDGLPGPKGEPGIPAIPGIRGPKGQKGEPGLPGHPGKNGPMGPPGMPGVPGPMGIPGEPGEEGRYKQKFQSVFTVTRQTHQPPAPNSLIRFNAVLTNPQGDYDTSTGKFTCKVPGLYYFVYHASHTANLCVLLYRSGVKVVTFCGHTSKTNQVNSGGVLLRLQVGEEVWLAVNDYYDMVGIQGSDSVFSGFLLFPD
Excerpt: (§1) Binding analysis may be performed using an Octet biosensor.

CD16 = CD16 (Homo sapiens, UniProt P08637); assay: CD16 binding of IgG Fc polypeptides (Octet biolayer interferometry described); details: for CD16 Binding: Wild-type Canine IgG Fc
Sequence of CD16 (P08637 17-254): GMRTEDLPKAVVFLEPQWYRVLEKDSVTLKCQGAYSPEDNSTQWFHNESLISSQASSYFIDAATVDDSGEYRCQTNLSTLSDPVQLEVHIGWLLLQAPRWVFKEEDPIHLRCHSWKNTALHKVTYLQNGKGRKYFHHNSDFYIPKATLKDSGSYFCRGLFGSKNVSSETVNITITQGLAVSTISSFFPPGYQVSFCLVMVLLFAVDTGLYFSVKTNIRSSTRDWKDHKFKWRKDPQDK
Excerpt: as §1

C1q [2] = molecular target: T1, C1q; assay: Binding between human C1q and canine IgG-B Fc fusion protein; details: compared to a fusion protein comprising wild-type canine IgG-B Fc
Excerpt: as §1

[3] = Differential scanning fluorimetry, stability at various pH; type: physicochemical; details: n = 3, 10 μg construct
Excerpt: Furthermore, differential scanning fluorimetry was used to assess the stability of the contiguous polypeptides at various pH, as reflected by mean melting point temperature (n=3) (Table 9, below). The increased stability of the variant feline IgG2 hinge is most evident at pH 6.

Molecule	Protein A binding affinity (Protein A)	binding affinity to C1q (C1q [1])	Protein A Binding (Protein A)	Mean Melting Point Temperature (Tm) ([3]; pH 6)	Mean Melting Point Temperature (Tm) ([3]; pH 7)	Mean Melting Point Temperature (Tm) ([3]; pH 8)	also measured
canine IgG-B Fc: wild-type canine IgG-B Fc polypeptide (protein, Wild-type canine IgG-B Fc , Protein A +, C1q +, CD16 +, wild-type canine IgG-B Fc polypeptide) PAPEMLGGPSVFIFPPKPKDTLLIARTPEVTCVVVDLDPEDPEVQISWFVDGKQMQTAKTQPREEQFNGTYRVVSVLPIGHQDWLKGKQFTCKVNNKALPSPIERTISKARGQAHQPSVYVLPPSREELSKNTVSLTCLIKDFFPPDIDVEWQSNGQQEPESKYRTTPPQLDEDGSYFLYSKLSVDKSRWQRGDTFICAVMHEALHNHYTQESLSHSPGK	has Protein A binding affinity	bind to C1q					CD16 binding activity (CD16): have CD16 binding activity
canine IgG-A Fc: wild-type canine IgG-A Fc polypeptide (protein, Wild-type canine IgG-A Fc , Protein A -, C1q -, CD16, wild-type canine IgG-A Fc polypeptide) PVPEPLGGPSVLIFPPKPKDILRITRTPEVTCVVLDLGREDPEVQISWFVDGKEVHTAKTQSREQQFNGTYRVVSVLPIEHQDWLTGKEFKCRVNHIDLPSPIERTISKARGRAHKPSVYVLPPSPKELSSSDTVSITCLIKDFYPPDIDVEWQSNGQQEPERKHRMTPPQLDEDGSYFLYSKLSVDKSRWQQGDPFTCAVMHETLQNHYTDLSLSHSPGK	weak or no measurable Protein A binding affinity	weak or no measurable binding affinity to C1q	−				C1q Binding (C1q [1]): −; CD16 Binding (CD16): −
canine IgG-C Fc: wild-type canine IgG-C Fc polypeptide (protein, Wild-type canine IgG-C Fc , Protein A - , C1q +, CD16 +, wild-type canine IgG-C Fc polypeptide) PGCGLLGGPSVFIFPPKPKDILVTARTPTVTCVVVDLDPENPEVQISWFVDSKQVQTANTQPREEQSNGTYRVVSVLPIGHQDWLSGKQFKCKVNNKALPSPIEEIISKTPGQAHQPNVYVLPPSRDEMSKNTVTLTCLVKDFFPPEIDVEWQSNGQQEPESKYRMTPPQLDEDGSYFLYSKLSVDKSRWQRGDTFICAVMHEALHNHYTQISLSHSPGK	weak or no measurable Protein A binding affinity	bind to C1q	−				CD16 binding activity (CD16): have CD16 binding activity
canine IgG-D Fc: wild-type canine IgG-D Fc polypeptide (protein, Wild-type canine IgG-D Fc , Protein A -, C1q -, CD16, wild-type canine IgG-D Fc polypeptide) PVPESLGGPSVFIFPPKPKDILRITRTPEITCVVLDLGREDPEVQISWFVDGKEVHTAKTQPREQQFNSTYRVVSVLPIEHQDWLTGKEFKCRVNHIGLPSPIERTISKARGQAHQPSVYVLPPSPKELSSSDTVTLTCLIKDFFPPEIDVEWQSNGQPEPESKYHTTAPQLDEDGSYFLYSKLSVDKSRWQQGDTFTCAVMHEALQNHYTDLSLSHSPGK	weak or no measurable Protein A binding affinity	weak or no measurable binding affinity to C1q	−				C1q Binding (C1q [1]): −; CD16 Binding (CD16): −
fusion protein comprising variant canine IgG-B Fc K(93)R: fusion protein comprising variant canine IgG-B Fc K(93)R (SEQ ID NO: 78); fusion partner not stated (protein, left off: a dimerising Fc or GST) PAPEMLGGPSVFIFPPKPKDTLLIARTPEVTCVVVDLDPEDPEVQISWFVDGKQMQTAKTQPREEQFNGTYRVVSVLPIGHQDWLKGKQFTCRVNNKALPSPIERTISKARGQAHQPSVYVLPPSREELSKNTVSLTCLIKDFFPPDIDVEWQSNGQQEPESKYRTTPPQLDEDGSYFLYSKLSVDKSRWQRGDTFICAVMHEALHNHYTQESLSHSPGK							binding to human C1q (C1q [2]): Reduced binding
GLP1-G8/GLP1-2G_III_VARfeIgG2: Formula III GLP1 contiguous polypeptide comprising variant feline IgG2 Fc of SEQ ID NO: 17 (Gly to Cys at position 14) (protein, Synthetic GLP1-G8/GLP1-2G_III_ VARfeIgG2) HGEGTFTSDVSSYLEGQAAKEFIAWLVKGGGGSGGGGSGGGGSGGGGSPKTASTIESKTGECPKCPVPEIPGAPSVFIFPPKPKDTLSISRTPEVTCLVVDLGPDDSNVQITWFVDNTEMHTAKTRPREEQFNSTYRVVSVLPILHQDWLKGKEFKCKVNSKSLPSAMERTISKAKGQPHEPQVYVLPPTQEELSENKVSVTCLIKGFHPPDIAVEWEITGQPEPENNYQTTPPQLDSDGTYFLYSRLSVDRSHWQRGNTYTCSVSHEALHSHHTQKSLTQSPGKGGGGSGGGGHAEGTFTSDVSSYLEGQAAKEFIAWLVKGGG				56.9 °C	55 °C	52.5 °C	
GLP1-G8/GLP1-2G_III_WTfeIgG2: Formula III contiguous polypeptide: GLP1-G8 (7-35), GLP1 (7-35), two flexible linkers, 2G C-terminal extension, wildtype feline IgG2 Fc (protein, Synthetic GLP1-G8/GLP-2G_III_ WTfeIgG2, Formula III contiguous polypeptide: GLP1-G8 (7-35), GLP1 (7-35), two flexible linkers, 2G C-terminal extension, wildtype feline IgG2 Fc) HGEGTFTSDVSSYLEGQAAKEFIAWLVKGGGGSGGGGSGGGGSGGGGSPKTASTIESKTGEGPKCPVPEIPGAPSVFIFPPKPKDTLSISRTPEVTCLVVDLGPDDSNVQITWFVDNTEMHTAKTRPREEQFNSTYRVVSVLPILHQDWLKGKEFKCKVNSKSLPSAMERTISKAKGQPHEPQVYVLPPTQEELSENKVSVTCLIKGFHPPDIAVEWEITGQPEPENNYQTTPPQLDSDGTYFLYSRLSVDRSHWQRGNTYTCSVSHEALHSHHTQKSLTQSPGKGGGGSGGGGHAEGTFTSDVSSYLEGQAAKEFIAWLVKGGG				55.2 °C	55.7 °C	54.2 °C	
GLP1-G8_I_WTfeIgG2: Formula I contiguous polypeptide: GLP1-G8 (7-35), flexible linker, wildtype feline IgG2 Fc (protein, Synthetic GLP1-G8_I_WTfeIgG2, Formula I contiguous polypeptide: GLP1-G8 (7-35), flexible linker, wildtype feline IgG2 Fc) HGEGTFTSDVSSYLEGQAAKEFIAWLVKGGGGSGGGGSGGGGSGGGGSPKTASTIESKTGEGPKCPVPEIPGAPSVFIFPPKPKDTLSISRTPEVTCLVVDLGPDDSNVQITWFVDNTEMHTAKTRPREEQFNSTYRVVSVLPILHQDWLKGKEFKCKVNSKSLPSAMERTISKAKGQPHEPQVYVLPPTQEELSENKVSVTCLIKGFHPPDIAVEWEITGQPEPENNYQTTPPQLDSDGTYFLYSRLSVDRSHWQRGNTYTCSVSHEALHSHHTQKSLTQSPGK				56.9 °C	59.9 °C	59 °C	Mean Melting Point Temperature (Tm) ([3]; pH 5): 48.5 °C
